For data set [1] the following is noted: cited from earlier work.
Data set [2] can be described thus: Adenosine deaminase (ADA) activity assay. It counts as biochemical. From the text:
The adenosine deaminase (ADA; EC 3.5.4.4) activity of any of the ADA2 described herein, including a wildtype, variant or conjugate, can be assessed using methods well known in the art. ADA activity assays commonly measure, directly or indirectly, the rate of production a product of the enzymatic reaction. For example, the production of inosine or ammonia can be directly or indirectly measured. In other examples, the decrease of the substrate of the enzyme, e.g., adenosine or 2-deoxyadenosine, is measured. The decrease of the substrate, or the increase of the product, can be measured directly by spectrophotometry, or indirectly, by subsequent enzymatic or oxidation-reduction reactions that use chromogenic substrates or change the absorbance spectra of the reaction.
For example, some commercially available adenosine deaminase (ADA) assays, such as ADA assay kits available from BQ Kits (San Diego, Calif.; Cat. No. BQ014EALD) and Diazyme (Poway, C A; Cat. No. DZ117A-K), utilize colorimetric substrate and spectrophotometric reading to determine the conversion of adenosine to inosine by ADA enzymes. In these assays, the production of inosine is detected by multi-step enzymatic reactions that produce a chromogenic dye. […] The change in absorbance at 556 nm (ΔA556) over time, at 37° C., is measured. […]

For data set [3] the following is noted: adenosine deaminase activity; listed as wildtype ADA2; cited from earlier work.
Data set [4] has as its system mixture of NK and T (NK/T) cells. Nature of the data set: T-cell or NK/T cell proliferation assay in the presence of adenosine. Format: cell-based. From the text:
Reversal of adenosine-mediated immunosuppression by any ADA2 provided herein, including wildtype and variants, conjugates and other modified forms thereof, and combination therapy using any ADA2 provided herein and other agents, can be examined in vitro, for example, by performing proliferation assays. Such assays include, but are not limited to T-cell proliferation assays or a mixture of NK and T (NK/T) cell proliferation assays, in the presence of adenosine and/or any ADA2 provided herein and/or any other combination therapy agents. For example, the immunosuppressive effect of adenosine on various immune cells, such as lymphocytes, natural killer (NK) cells, polymorphonuclear granulocytes, and phagocytic cells such as tissue macrophages, can be assessed by proliferation assays using the immune cells or mixtures thereof, such as the mixture of NK and T (NK/T) cells prepared from peripheral blood mononuclear cells (PBMC). The effect of any ADA2 provided herein and any other combination therapy agents provided herein, can be assessed by comparing the results of such proliferation assays in the presence of adenosine, with or without the addition of any ADA2 provided herein and/or any other combination therapy agents provided herein, including immune checkpoint inhibitors. Combination therapy agents are described in Section H.4 below. […]

Data set [5] can be described thus: In vivo pharmacokinetics of PEGylated rHuADA2 combination variants (Example 14). The following applies: BALB/c mice, 3 mg/kg intravenous.
Description: Twenty-seven (27) male BALB/c mice were divided into three (3) dosing groups, and were further divided into three (3) groups each for sampling of blood at different time points. Thus, the mice were randomized into nine (9) groups total. Mice were weighed prior to the start of the study, and randomized into the 9 groups based upon their body weights. In each sampling group, three groups of (3) mice were used for dosing each test article to prevent oversampling of the blood from the animals. For measurement of baseline ADA2 levels, a blood sample was obtained from 12 randomly chosen mice and plasma was prepared using the anti-coagulant potassium (K3) ethylene diamine tetraacetic acid (K3-EDTA). All blood was collected by submandibular venipuncture.
PEGylated ADA2 variants were prepared using the PEGylation method as described in Example 8.A, with minor modifications. Briefly, all ADA2 variants at 10 mg/mL were PEGylated with linear PEG-20K (JenKem Technology, Plano, Tex.; Cat. No. M-SCM-20K) at 1:15 molar ratio and incubated first at 37° for 30 min, then at 4° C. for 16 hours.
Approximately 200 μL of whole blood was collected at designated sampling time points from appropriate groups of mice as indicated below in Table 38 and kept on ice until plasma preparation. The initial two (2) blood samples were collected by submandibular venipuncture. The final sample was collected from a terminal bleed. Plasma was prepared by centrifuging the blood (500×g for 5 min at 4° C.), transferring the plasma to a fresh tube and immediately freezing at −80° C. until the adenosine deaminase activity assay. Adenosine deaminase activity was determined as described in Example 4.
Non-compartmental analysis (NCA) was conducted using the Phoenix WinNonlin version 6.3 (Pharsight Corp, St. Louis, Mo. 63101). The half-life, or time taken for the activity of ADA2 proteins to be reduced by half, was calculated. Also, total exposure was measured by calculating the Area Under the Concentration-time Curve (AUC). The AUC and half-life values were obtained from the unweighted average from each test article group. The following options in the Phoenix WinNonlin program were used for data analysis: (i) linear trapezoidal/linear interpolation option for AUC; (ii) best-fit slope selection option for terminal slope; and (iii) uniform weighting of the data.
[6] abbreviates: vs non-PEGylated WT rHuADA2 of Example 9.

Entries after “also recorded” stand apart in the source; their conditions may differ. Like-named read-outs stand apart in the source and are kept apart here.

B1: ADA2: wild-type human adenosine deaminase 2, mature form SEQ ID NO:5, homodimer (protein, listed as Homo sapiens)
chain: IDETRAHLLLKEKMMRLGGRLVLNTKEELANERLMTLKIAEMKEAMRTLIFPPSMHFFQAKHLIERSQVFNILRMMPKGAALHLHDIGIVTMDWLVRNVTYRPHCHICFTPRGIMQFRFAHPTPRPSEKCSKWILLEDYRKRVQNVTEFDDSLLRNFTLVTQHPEVIYTNQNVVWSKFETIFFTISGLIHYAPVFRDYVFRSMQEFYEDNVLYMEIRARLLPVYELSGEHHDEEWSVKTYQEVAQKFVETHPEFIGIKIIYSDHRSKDVAVIAESIRMAMGLRIKFPTVVAGFDLVGHEDTGHSLHDYKEALMIPAKDGVKLPYFFHAGETDWQGTSIDRNILDALMLNTTRIGHGFALSKHPAVRTYSWKKDIPIEVCPISNQVLKLVSDLRNHPVATLMATGHPMVISSDDPAMFGAKGLSYDFYEVFMGIGGMKADLRTLKQLAMNSIKYSTLLESEKNTFMEIWKKRWDKFIADVATK
modifications: ADA2 mature protein
Broadly, the Km is the concentration of substrate that gives half-maximal velocity. On to B1, for which the Km is roughly 2000 µM in data set [1] (for adenosine, wild-type enzyme in humans, read-out: Km) and roughly 2250 µM in data set [1] (read-out: Km for adenosine). Also, the “Km of ADA2 for adenosine relative to that of ADA1” value in data set [2] is listed as “approximately 100 times”. The pH optimum in data set [3] was roughly 6.5. In data set [4], the “reversal of adenosine-mediated immunosuppression” value is given as “reverse the adenosine-dependent immunosuppression; also recorded: reversed”.

B2: PEG-K374D: rHuADA2-K374D (SEQ ID NO:20) PEGylated on surface exposed lysines with linear PEG-20K (conjugate)
chain: IDETRAHLLLKEKMMRLGGRLVLNTKEELANERLMTLKIAEMKEAMRTLIFPPSMHFFQAKHLIERSQVFNILRMMPKGAALHLHDIGIVTMDWLVRNVTYRPHCHICFTPRGIMQFRFAHPTPRPSEKCSKWILLEDYRKRVQNVTEFDDSLLRNFTLVTQHPEVIYTNQNVVWSKFETIFFTISGLIHYAPVFRDYVFRSMQEFYEDNVLYMEIRARLLPVYELSGEHHDEEWSVKTYQEVAQKFVETHPEFIGIKIIYSDHRSKDVAVIAESIRMAMGLRIKFPTVVAGFDLVGHEDTGHSLHDYKEALMIPAKDGVKLPYFFHAGETDWQGTSIDRNILDALMLNTTRIGHGFALSKHPAVRTYSWDKDIPIEVCPISNQVLKLVSDLRNHPVATLMATGHPMVISSDDPAMFGAKGLSYDFYEVFMGIGGMKADLRTLKQLAMNSIKYSTLLESEKNTFMEIWKKRWDKFIADVATK
modifications: linear PEG-20K on surface lysines; human ADA2 K371D, mature numbering
As for B2, in data set [5] (plasma ADA activity), the “AUC (total exposure)” value is 4,662 (U * h)/mL and the “Half-life slow (t1/2)” value was 2,256 min. In data set [5] (setting [6]), the “Percent increase in AUC compared to WT ADA2” value is listed as 14,177% and the “Percent increase in t1/2 compared to WT ADA2” value is listed as 3,269%.

These data come from patent US9969998B2, “Compositions of adenosine deaminase-2 (ADA2), variants thereof and methods of using same” (Halozyme, Inc., priority 2014, dated 2018).
